Reference: patent publication US20190256588A1 (BEIJING HANMI PHARM, published 2019)

Target: recombinant monkey IL-17A (monkey)
Assay: ELISA, recombinant monkey IL-17A coated on the plate, HRP anti-human IgG, OD450nm
Description: Recombinant human IL-17A, monkey IL-17A, rat IL-17A and mouse IL-17A (all purchased from Sino Biological Inc.), were coated on a 96-well high-absorbing ELISA plate with a carbonate buffer solution with pH 9.6, the coating concentration was […], the coating amount was 100 μL per well, and the coating was carried out at 4° C. overnight. The plate was washed five times with PBST and blocked with 300 μL/well of PBST containing 1% BSA, and then incubated at 25° C. for 1 hour. The plate was washed five times with PBST. […] The plate was washed five times with PBST. Then, horseradish peroxidase-labeled anti-human IgG antibody (Chemicon, Catalog Number AP309P) 1:2000 diluted in PBST containing 1% BSA was added, 100 μL per well, incubated at 25° C. for 1 hour. The plate was washed five times with PBST. 100 μL/well of colorimetric substrate TMB was added and incubated at room temperature for 10 minutes. Color development was terminated by adding 100 μL/well of 1 M H₂SO₄. The absorbance at 450 nm was read on a microplate reader.

B1: anti-human IL-17A chimeric monoclonal antibody (antibody, human IgG1, kappa, V domains shown)
VH: DVQVQESGPGLVKPSQSLSLTCTVTGNSITSYYAWNWIRQFPGNKLEWMGYITYSGTTSYNPSLKSRISITRDTSKNQFFLQLNSVTTEDTATYYCAREEYDDIYAVDYWGQGTSVTVSS
VL: IIVMTQTPLSLPVSLGDQASISCRSSQSLVHSNGNTYLHWYLQKPGQSPKLLIYKVYNRFSGVPDRFSGSGSGTDFTLKISRVEAEDLGVYFCSQSTHFPTFGGGTKLEIKR
notes: expressed in 293F cells; also called Anti-human IL-17A Chimeric Antibody; chimeric anti-human IL-17A monoclonal antibody
In the case of B1, the EC50 is reported as 0.09 nM.
